{
  "source": "IntAct's records for PubMed 23125415",
  "parents": {"B1": {"name": "Fractalkine (Homo sapiens), P78423 (parent)", "chain": "MAPISLSWLLRLATFCHLTVLLAGQHHGVTKCNITCSKMTSKIPVALLIHYQQNQASCGKRAIILETRQHRLFCADPKEQWVKDAMQHLDRQAAALTRNGGTFEKQIGEVKPRTTPAAGGMDESVVLEPEATGESSSLEPTPSSQEAQRALGTSPELPTGVTGSSGTRLPPTPKAQDGGPVGTELFRVPPVSTAATWQSSAPHQPGPSLWAEAKTSEAPSTQDPSTQASTASSPAPEENAPSEGQRVWGQGQSPRPENSLEREEMGPVPAHTDAFQDWGPGSMAHVSVVPVSSEGTPSREPVASGSWTPKAEEPIHATMDPQRLGVLITPVPDAQAATRRQAVGLLAFLGLLFCLGVAMFTYQSLQGCPRKMAGEMAEGLRYIPRSCGSNSYVLVPV"}},
  "data": [
    {"variants_of": "B1", "settings": "with cx3c1_human CX3CR1, P49238", "values": [
      {"variant": "MAPISLSWLLRLATFCHLTVLLAGQHHGVTKCNITCSKMTSKIPVALLIHYQQNQASCGKRAIILETRQHALFCADPKEQWVKDAMQHLDRQAAALTRNGGTFEKQIGEVKPRTTPAAGGMDESVVLEPEATGESSSLEPTPSSQEAQRALGTSPELPTGVTGSSGTRLPPTPKAQDGGPVGTELFRVPPVSTAATWQSSAPHQPGPSLWAEAKTSEAPSTQDPSTQASTASSPAPEENAPSEGQRVWGQGQSPRPENSLEREEMGPVPAHTDAFQDWGPGSMAHVSVVPVSSEGTPSREPVASGSWTPKAEEPIHATMDPQRLGVLITPVPDAQAATRRQAVGLLAFLGLLFCLGVAMFTYQSLQGCPRKMAGEMAEGLRYIPRSCGSNSYVLVPV", "note": "[R71A]", "effect of a mutation on the interaction": "disrupting interaction strength"},
      {"variant": "MAPISLSWLLRLATFCHLTVLLAGQHHGVTKCNITCSKMTSKIPVALLIHYQQNQASCGAAAIILETRQHRLFCADPKEQWVKDAMQHLDRQAAALTRNGGTFEKQIGEVKPRTTPAAGGMDESVVLEPEATGESSSLEPTPSSQEAQRALGTSPELPTGVTGSSGTRLPPTPKAQDGGPVGTELFRVPPVSTAATWQSSAPHQPGPSLWAEAKTSEAPSTQDPSTQASTASSPAPEENAPSEGQRVWGQGQSPRPENSLEREEMGPVPAHTDAFQDWGPGSMAHVSVVPVSSEGTPSREPVASGSWTPKAEEPIHATMDPQRLGVLITPVPDAQAATRRQAVGLLAFLGLLFCLGVAMFTYQSLQGCPRKMAGEMAEGLRYIPRSCGSNSYVLVPV", "note": "[K60A;R61A]", "effect of a mutation on the interaction": "with no effect"}
    ]}
  ]
}
